Measured values reported in article PMC8324060 (Science Advances, 2021).

What was measured:
[1] = target: Human MLH1 C-terminal domain (amino acids 486 to 756) (human) (UniProt P40692); assay: ITC
[2] = target: recombinant MutLα (MLH1-PMS2) (human, UniProt P40692;P54278); assay: pull-down
Sequence of recombinant MutLα (MLH1-PMS2) (P40692 whole entry, chain 1 of 2): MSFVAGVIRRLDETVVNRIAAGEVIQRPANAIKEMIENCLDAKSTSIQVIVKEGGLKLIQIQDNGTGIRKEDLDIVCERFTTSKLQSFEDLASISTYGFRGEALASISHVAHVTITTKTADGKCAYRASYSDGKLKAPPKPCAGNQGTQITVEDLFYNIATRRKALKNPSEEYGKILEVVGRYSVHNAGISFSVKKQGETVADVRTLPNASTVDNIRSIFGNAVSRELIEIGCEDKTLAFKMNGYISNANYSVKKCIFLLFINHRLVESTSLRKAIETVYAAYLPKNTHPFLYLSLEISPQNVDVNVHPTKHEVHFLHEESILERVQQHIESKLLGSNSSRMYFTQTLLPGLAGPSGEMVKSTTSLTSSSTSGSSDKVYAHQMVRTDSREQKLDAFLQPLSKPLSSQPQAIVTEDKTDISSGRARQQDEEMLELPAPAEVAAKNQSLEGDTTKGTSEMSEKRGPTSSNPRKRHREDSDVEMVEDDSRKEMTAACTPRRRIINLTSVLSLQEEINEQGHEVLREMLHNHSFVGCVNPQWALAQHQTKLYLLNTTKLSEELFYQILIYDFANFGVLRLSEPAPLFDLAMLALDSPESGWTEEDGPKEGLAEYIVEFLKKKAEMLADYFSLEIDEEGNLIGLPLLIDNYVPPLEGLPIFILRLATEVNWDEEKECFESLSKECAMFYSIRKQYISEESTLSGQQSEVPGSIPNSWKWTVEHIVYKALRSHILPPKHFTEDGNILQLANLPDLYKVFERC
Sequence of recombinant MutLα (MLH1-PMS2) (P54278 whole entry, chain 2 of 2): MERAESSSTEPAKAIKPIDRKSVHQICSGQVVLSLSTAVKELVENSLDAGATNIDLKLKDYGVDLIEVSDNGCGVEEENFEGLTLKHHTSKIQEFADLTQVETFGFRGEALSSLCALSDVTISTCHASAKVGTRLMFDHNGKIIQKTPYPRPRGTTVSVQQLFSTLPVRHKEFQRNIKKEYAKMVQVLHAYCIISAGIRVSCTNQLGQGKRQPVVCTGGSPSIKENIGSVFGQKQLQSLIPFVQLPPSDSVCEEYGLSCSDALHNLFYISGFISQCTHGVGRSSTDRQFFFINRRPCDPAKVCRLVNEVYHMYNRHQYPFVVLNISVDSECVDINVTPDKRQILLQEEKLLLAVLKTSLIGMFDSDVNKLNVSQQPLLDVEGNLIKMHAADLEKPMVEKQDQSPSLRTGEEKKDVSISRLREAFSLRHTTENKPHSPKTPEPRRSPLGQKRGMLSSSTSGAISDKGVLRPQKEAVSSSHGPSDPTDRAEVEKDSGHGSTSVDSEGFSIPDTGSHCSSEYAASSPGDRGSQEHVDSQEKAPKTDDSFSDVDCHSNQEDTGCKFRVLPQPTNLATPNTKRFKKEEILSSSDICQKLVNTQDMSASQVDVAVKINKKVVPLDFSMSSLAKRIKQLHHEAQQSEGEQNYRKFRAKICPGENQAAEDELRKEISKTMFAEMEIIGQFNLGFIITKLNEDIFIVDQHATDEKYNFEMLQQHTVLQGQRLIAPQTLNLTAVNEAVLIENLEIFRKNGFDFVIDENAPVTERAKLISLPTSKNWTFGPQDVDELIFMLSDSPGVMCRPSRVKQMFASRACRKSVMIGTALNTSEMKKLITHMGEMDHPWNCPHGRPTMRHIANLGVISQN

Sequence of Human MLH1 C-terminal domain (amino acids 486 to 756) (human) (P40692 486-756): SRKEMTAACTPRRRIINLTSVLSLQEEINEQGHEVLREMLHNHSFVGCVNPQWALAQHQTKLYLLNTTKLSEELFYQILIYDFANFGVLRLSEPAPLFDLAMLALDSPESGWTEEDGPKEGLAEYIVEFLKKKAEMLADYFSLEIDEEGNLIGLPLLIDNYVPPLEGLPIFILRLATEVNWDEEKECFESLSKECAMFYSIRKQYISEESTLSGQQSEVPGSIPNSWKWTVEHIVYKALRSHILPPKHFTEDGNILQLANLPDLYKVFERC

For FAN1 MIM 12-mer peptide (wt), the Kd [1] was 3200 nM.

FAN1 MIP 8-mer peptide (wt) showed a Kd [1] of 2800 nM.

“FAN1-derived 42-mer peptide containing MIP and MIM (wt)” gave a Kd [1] of 70 nM.

B1: GST-FAN1 (amino acids 118 to 177) (domain or fragment)
chain: KREVKQKISPYFKSNDVVCKNQDELRNRSVKVICLGSLASKLSRKYVKAKKSIDKDEEFA
B1: binds [2].
